Assay results published in PMC6859848 (2019).
Read-outs that look alike come from different tables or passages of the source.

Columns and labels:
[1] = test system: rG1 (5'-Alexa Fluor 647) (RNA, G4) ACCGGGGCAGGGGAAGAGGGGG; assay: fluorescence quenching titration; settings: K+ 100 mM (KCl); 10 mM Tris, 5% DMSO; 100 nM RNA; single site fit; apparent
HNRNPH1 qRRM3 = target: T1, HNRNPH1 qRRM3 (UniProt P31943 277-381); assay: SPR
T1 sequence: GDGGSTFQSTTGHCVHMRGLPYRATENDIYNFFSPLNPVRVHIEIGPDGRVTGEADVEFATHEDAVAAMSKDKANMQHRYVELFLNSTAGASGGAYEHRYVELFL

HNRNPH1 delta1-103 = target: T2, HNRNPH1 delta1-103 (UniProt P31943 104-449, del1-103); assay: SPR
T2 sequence: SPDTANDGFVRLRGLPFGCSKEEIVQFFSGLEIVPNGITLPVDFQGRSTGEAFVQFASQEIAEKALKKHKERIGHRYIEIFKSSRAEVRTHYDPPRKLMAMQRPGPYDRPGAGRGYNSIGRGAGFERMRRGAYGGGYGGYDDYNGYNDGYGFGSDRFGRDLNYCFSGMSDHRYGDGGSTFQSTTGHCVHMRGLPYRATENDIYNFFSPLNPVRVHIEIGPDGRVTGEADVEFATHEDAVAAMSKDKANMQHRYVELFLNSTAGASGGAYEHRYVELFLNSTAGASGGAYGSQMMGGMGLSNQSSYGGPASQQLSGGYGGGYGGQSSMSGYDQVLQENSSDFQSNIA

[2] = target: T3, HNRNPH1 qRRM2-3 (qRRM2-GYR-qRRM3) (UniProt P31943 103-381); assay: SPR
T3 sequence: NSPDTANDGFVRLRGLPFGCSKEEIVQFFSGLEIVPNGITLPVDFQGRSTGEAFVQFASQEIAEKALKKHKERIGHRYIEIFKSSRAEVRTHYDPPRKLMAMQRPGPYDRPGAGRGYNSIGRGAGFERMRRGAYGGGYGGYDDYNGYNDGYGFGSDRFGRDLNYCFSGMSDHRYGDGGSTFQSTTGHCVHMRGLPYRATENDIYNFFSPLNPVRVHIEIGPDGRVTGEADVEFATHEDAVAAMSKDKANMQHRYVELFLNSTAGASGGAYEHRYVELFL

HNRNPH1 qRRM1-2 = target: T4, HNRNPH1 qRRM1-2 (UniProt P31943 1-194); assay: SPR
T4 sequence: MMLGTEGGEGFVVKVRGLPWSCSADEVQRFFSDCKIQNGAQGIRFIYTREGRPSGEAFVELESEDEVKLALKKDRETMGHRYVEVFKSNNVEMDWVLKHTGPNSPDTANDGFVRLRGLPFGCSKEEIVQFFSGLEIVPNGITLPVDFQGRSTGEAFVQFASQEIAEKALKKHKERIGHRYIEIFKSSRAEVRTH

HNRNPH1 full-length [3] = target: T5, HNRNPH1 full-length (UniProt P31943 1-449); assay: SPR
T5 sequence: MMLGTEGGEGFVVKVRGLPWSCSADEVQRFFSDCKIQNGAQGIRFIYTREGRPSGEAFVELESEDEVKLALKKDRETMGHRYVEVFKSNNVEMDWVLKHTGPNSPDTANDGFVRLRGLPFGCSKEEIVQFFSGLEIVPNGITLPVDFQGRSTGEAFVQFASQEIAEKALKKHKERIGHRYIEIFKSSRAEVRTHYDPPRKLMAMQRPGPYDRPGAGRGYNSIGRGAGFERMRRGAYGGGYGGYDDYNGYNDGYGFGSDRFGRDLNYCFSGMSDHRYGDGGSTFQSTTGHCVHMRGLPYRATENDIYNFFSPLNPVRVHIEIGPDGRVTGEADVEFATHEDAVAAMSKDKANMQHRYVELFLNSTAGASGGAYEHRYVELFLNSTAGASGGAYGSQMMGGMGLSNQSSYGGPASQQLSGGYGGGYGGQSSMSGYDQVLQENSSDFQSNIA

HNRNPH1 qRRM2 = target: T6, HNRNPH1 qRRM2 (UniProt P31943 103-194); assay: SPR
T6 sequence: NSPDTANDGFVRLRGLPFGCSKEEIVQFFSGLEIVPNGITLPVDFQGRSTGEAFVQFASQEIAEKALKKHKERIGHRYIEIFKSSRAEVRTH

HNRNPH1 qRRM1 = target: T7, HNRNPH1 qRRM1 (UniProt P31943 1-102); assay: SPR
T7 sequence: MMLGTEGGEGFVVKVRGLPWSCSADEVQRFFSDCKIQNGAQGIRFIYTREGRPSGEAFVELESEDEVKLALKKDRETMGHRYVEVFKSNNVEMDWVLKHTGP

HNRNPH1 full-length [4] = target: T5, HNRNPH1 full-length; assay: EMSA
HNRNPH1 full-length [5] = target: T5, HNRNPH1 full-length; assay: EMSA; remark: listed apart in the source
HNRNPH1 full-length [6] = target: T5, HNRNPH1 full-length; assay: antibody-based RNA binding assay
HNRNPH1 full-length [7] = target: T5, HNRNPH1 full-length; assay: competition

Molecule: NCCOc1cc(C(=O)Nc2cc(OCCN)c3ccccc3n2)nc(C(=O)Nc2cc(OCCN)c3ccccc3n2)c1
- KD^app [1]: 4600 nM

Molecule: ACCGGGGCAGGGGAAGAGGGGG (structured_RNA) [rG1 5'-biotin (SPR)]
- Kd (HNRNPH1 qRRM3): 315 nM
- Kd (HNRNPH1 delta1-103): 2.4 nM
- Kd [2]: 97 nM
- Kd (HNRNPH1 qRRM1-2): 1.5 nM
- Kd (HNRNPH1 full-length [3]): 4.8 nM
- Kd (HNRNPH1 qRRM2): 22 nM
- Kd (HNRNPH1 qRRM1): 30 nM

Molecule: AGCAGAGGUGGGCGGGGAGGAGGAC (ssRNA) [rG2a]
- binding result (HNRNPH1 full-length [4]): binds

Molecule: GUGGGCGGGGAGGAGGACGCGGUGGAAU (ssRNA) [rG2b]
- binding result (HNRNPH1 full-length [4]): binds

Molecule: GAUCGUGGAGGCAUGAGCAGAGGUG (ssRNA) [Linker]
- binding result (HNRNPH1 full-length [5]): no binding

Molecule: ACCGGGGCAGGGGAAGAGGGGGAUU (structured_RNA) [rG1 3'-biotin]
- Kd (HNRNPH1 full-length [6]): 30 ± 2 nM

Molecule: ACCGGGGCAGGGGAAGAGGGGGAUU (structured_RNA) [rG1 nonbiotinylated competitor]
- IC50 (HNRNPH1 full-length [7]): 84 nM
